Reference: US12540197B2, “Anti-tissue factor antibodies and antibody conjugates, compositions comprising anti-tissue factor antibodies or antibody conjugates, and methods of making and using anti-tissue factor antibodies and antibody conjugates” (SUTRO BIOPHARMA, INC., priority 2023, dated 2026)

Key:
[1] = DSF protein thermal shift assay (melting temperatures TM1/TM2); format: physicochemical; conditions: Table 8, humanized rabbit antibodies; TM2 = Fab domain
Procedure: (§1) A protein thermal shift assay was carried out by mixing the protein to be assayed with an environmentally sensitive dye (SYPRO Orange, Life Technologies #S-6650) and monitoring the fluorescence of the mixture in real time as it underwent controlled thermal denaturation. Protein solutions between 0.2-2 mg/mL were mixed at a 1:1 volumetric ratio with a solution of SYPRO Orange solution diluted 250-fold in PBS+10% sucrose. 10 μL aliquots of the protein-dye mixture were dispensed in quadruplicate in a 384-well microplate (Bio-Rad #MSP-3852). The plate was sealed with an optically clear sealing film (Bio-Rad #MSB-1001) and placed in a 384-well plate real-time thermocycler (Bio-Rad CFX384 Real Time System). The protein-dye mixture was heated from 25° C. to 95° C., at increments of 0.2° C. per cycle, allowing 3 seconds of equilibration at each temperature before taking a fluorescence measurement. At the end of the experiment, the transition melting temperatures (TM1 and TM2) were determined using the Bio-Rad CFX manager software. TM1 represents the melting temperature of the Fc domain. TM2 represents the melting temperature of the Fab domain.
as §1, with “solutions at 1” for “solutions between 0.2-2”, “a 1-1” for “a 1:1”, “sucrose. 5” for “sucrose. 10”

cynomolgus TF = assay: Biacore off-rate and kinetic binding, cynomolgus TF; conditions: 25° C.; for Biacore cynomolgus TF single point off-rate kinetics kd: Table 11, humanized rabbit antibodies, 100 nM antigen
Procedure: (§2) Anti-Fc polyclonal antibodies were immobilized onto a CM4 chip (Cytiva #BR100534) using amine coupling chemistry (Human Antibody Capture Kit, Cytiva #BR100839). The immobilization steps were carried out at a flow rate of 25 μL/min in 1×HBS-EP+buffer (Cytiva #BR100669). The sensor surfaces were activated for 7 min with a mixture of N-hydroxysuccinimide (NHS, 0.05 M) and 1-ethyl-3-(3-dimethylaminopropyl)-carbodiimide (EDC, 0.2 M). The anti-Fc polyclonal antibodies were injected over all 4 flow cells at a concentration of 25 μg/mL in 10 mM sodium acetate, pH 4.5, for 7 min. Ethanolamine (1 M, pH 8.5) was injected for 7 min to block any remaining activated groups. Approximately 6,000 response units (RU) of capture antibody was immobilized on each flow cell.
(§3) Off-rate and kinetic binding experiments were performed at 25° C. using 1×HBS-EP+buffer. Antibodies were injected over the anti-Fc surface at a concentration of 3 μg/mL for 12 seconds at a flow rate of 10 μL/min on flow cells 2, 3 and 4, followed by a buffer wash for 30 seconds at the same flow rate. Single point off-rate analysis was carried out using an antigen concentration of 100 nM. […] After capturing ligand (antibody) on the anti-Fc surface, the analyte (human TF, Lake Pharma; cynomolgus TF, Sino Bio #90885-C08H; mouse TF, R&D Systems #3178-PA) was bound for 180 seconds, followed by a 420 second dissociation phase at a flow rate of 50 μL/min. Between each ligand capture and analyte binding cycle, regeneration was carried out using 2 injections of 10 mM glycine pH 2.0 for 30 seconds at 30 μL/min, followed by a 30 second buffer wash step.
(§4) The data were fit with the Biacore T200 Evaluation software, using a 1:1 Langmuir binding model. KD (affinity, nM) was determined as a ratio of the kinetic rate constants calculated from the fits of the association and dissociation phases.
(§5) Anti-Fc polyclonal antibodies were immobilized onto a CM4 chip (Cytiva #BR100534) using amine coupling chemistry (Human Antibody Capture Kit, Cytiva #BR100839). The immobilization steps were carried out at a flow rate of 25 μL/min in 1×HBS-EP+buffer (Cytiva #BR100669). The sensor surfaces were activated for 7 min with a mixture of NHS (0.05 M) and EDC (0.2 M). The Anti-Fc antibodies were injected over all 4 flow cells at a concentration of 25 ug/ml in 10 mM sodium acetate, pH 4.5, for 7 min. Ethanolamine (1 M, pH 8.5) was injected for 7 min to block any remaining activated groups. Approximately 6,000 response units (RU) of capture antibody was immobilized on each flow cell. Off-rate and kinetic binding experiments were performed at 25° C. using 1×HBS-EP+buffer. Antibodies or ADCs were injected over the anti-Fc surface at a concentration of 3 μg/mL for 12 seconds at a flow rate of 10 μL/min on flow cells 2, 3 and 4, followed by a buffer wash for 30 seconds at the same flow rate. […] After capturing ligand (antibody) on the anti-Fc surface, the analyte (human TF, Lake Pharma; cynomolgus TF, Sino Bio #90885-C08H; mouse TF, R&D Systems #3178-PA) was bound for 180 seconds, followed by a 420 second dissociation phase at a flow rate of 50 μL/min. Between each ligand capture and analyte binding cycle, regeneration was carried out using 2 injections of 10 mM Glycine pH 2.0 for 30 seconds at 30 μL/min, followed by a 30 second buffer wash step. The data was fit with the Biacore T200 Evaluation software, using a 1-1 Langmuir binding model. KD (affinity, nM) was determined as a ratio of the kinetic rate constants calculated from the fits of the association and dissociation phases.

human TF = molecular target: T1, human TF (Homo sapiens, UniProt P13726); assay: Biacore off-rate and kinetic binding, human TF; conditions: 25° C.; for Biacore human TF single point off-rate kinetics kd: Table 11, humanized rabbit antibodies, 100 nM antigen
T1 construct: purchased Lake Pharma
Procedure: as §2, §3, §4, §5

HEK293T = assay: FACS cell-binding assay on parental HEK293T cells; conditions: Table 16, parental cells
Description: HEK293T, BxPC3 cells (TF positive) and NCI-H1703 (TF negative) cells were obtained from ATCC (American Type Culture Collection) and maintained in DMEM:F12 (1:1), high glucose (Corning) supplemented with 10% heat-inactivated fetal bovine serum (ThermoScientific), 1× Penicillin/Streptomycin (Corning) and 2 mmol glutamax (Thermo Fisher Scientific). To generate cells that stably expressing human tissue factor (HEK293T-humanTF) or cynomolgus tissue factor (HEK293T-cynoTF), HEK293T cells were transfected with plasmid vectors that contain the corresponding protein sequence and stable clones were selected with puromycin.
For a fluorescence-activated cell sorting (FACS) cell-binding assay, cells were collected by Accutase and counted by the Vi-CELL Cell Viability Analyzersharvested and, then re-suspended in FACS buffer (DPBS buffer supplemented with 1% bovine serum albumin). A total of 200,000 cells in 100 μL were incubated on ice with 100 μL of anti-TF antibodies in each well of a 96-well plate. Cells were washed twice with ice-cold FACS buffer and then incubated on ice for 60 mins with 5 μg/mL Alexa 647-labeled donkey anti-human Fc antibody (Jackson ImmunoResearch). Unstained cells and cells stained with secondary antibody alone were used as controls. Cells were washed twice with FACS buffer and analyzed using a BD FACS Canto system. Geometric mean fluorescence intensities (MFI) were fitted using non-linear regression analysis with one site specific binding equation on GraphPad Prism (GraphPad Software; La Jolla, CA).

Sequence of cynomolgus TF (as listed by the source): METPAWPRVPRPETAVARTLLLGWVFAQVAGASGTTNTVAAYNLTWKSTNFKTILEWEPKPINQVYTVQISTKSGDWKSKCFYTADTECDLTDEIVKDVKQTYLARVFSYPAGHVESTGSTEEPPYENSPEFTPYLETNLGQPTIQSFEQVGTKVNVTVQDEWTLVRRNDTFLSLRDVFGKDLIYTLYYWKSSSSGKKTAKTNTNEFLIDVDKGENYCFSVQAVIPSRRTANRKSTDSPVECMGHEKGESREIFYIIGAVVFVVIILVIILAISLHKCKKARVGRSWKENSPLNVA
T1 sequence (P13726 33-295): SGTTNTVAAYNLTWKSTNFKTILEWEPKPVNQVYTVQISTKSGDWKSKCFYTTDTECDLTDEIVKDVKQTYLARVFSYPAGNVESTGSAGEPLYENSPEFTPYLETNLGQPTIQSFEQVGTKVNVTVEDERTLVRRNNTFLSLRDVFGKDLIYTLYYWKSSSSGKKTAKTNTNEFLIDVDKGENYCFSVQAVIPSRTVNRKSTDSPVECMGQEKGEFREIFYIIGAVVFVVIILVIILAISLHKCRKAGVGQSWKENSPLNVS

Molecule	DSF TM2 (° C.) [1] [°C]	Biacore cynomolgus TF single point off-rate kinetics kd (cynomolgus TF) [s⁻¹]	Biacore human TF single point off-rate kinetics kd (human TF) [s⁻¹]	HEK293T Bmax (MFI) (HEK293T)	Biacore cynomolgus TF kinetics ka (cynomolgus TF; Table 12, 1:1 Langmuir) [M⁻¹ s⁻¹]	Biacore cynomolgus TF kinetics kd (cynomolgus TF; Table 12, 1:1 Langmuir) [s⁻¹]	Biacore human TF kinetics ka (human TF; Table 12, 1:1 Langmuir) [M⁻¹ s⁻¹]	Biacore human TF kinetics kd (human TF; Table 12, 1:1 Langmuir) [s⁻¹]
2842-B01 HC1/LC3 (antibody, conjugated to LP1 at Y180/F404) heavy: MQVQVVESGGGLVKPGGSLRLSCAASGFSISSYDMSWIRQAPGKGLEWIGIIGSNGRTYYADSVKGRFTISRNTNENTVYLQMNSLRAEDTAVYYCARGLYDGTGNIWGQGTLVTVSSASTKGPSVFPLAPSSKSTSGGTAALGCLVKDYFPEPVTVSWNSGALTSGVHTFPAVLQSSGLSLSSVVTVPSSSLGTQTYICNVNHKPSNTKVDKKVEPKSCDKTHTCPPCPAPELLGGPSVFLFPPKPKDTLMISRTPEVTCVVVDVSHEDPEVKFNWYVDGVEVHNAKTKPREEQYNSTYRVVSVLTVLHQDWLNGKEYKCKVSNKALPAPIEKTISKAKGQPREPQVYTLPPSREEMTKNQVSLTCLVKGFYPSDIAVEWESNGQPENNYKTTPPVLDSDGSFLYSKLTVDKSRWQQGNVFSCSVMHEALHNHYTQKSLSLSPGK light: MDIQMTQSPSSLSASVGDRVTITCQASQSVYGNNWLSWYQQKPGKAPKLLIYGASKLASGVPSRFSGSGSGTDFTLTISSLQPEDFATYYCQGTYYSGDWYFAFGGGTKVEIKRTVAAPSVFIFPPSDEQLKSGTASVVCLLNNFYPREAKVQWKVDNALQSGNSQESVTEQDSKDSTYSLSSTLTLSKADYEKHKVYACEVTHQGLSSPVTKSFNRGEC	87.6	0.00117	0.00054					
47 (antibody, pAzMeF at Y180/F404; conjugate) heavy: MEVQLVESGGGLVQPGGSLRLSCAASGFSISSYDMSWVRQAPGKGLEWIGIIGSNGRTYYPDSVKGRFTISRDNSKNTVTLQMNSLRAEDTAVYYCARGLYDGTGNIWGQGTLVTVSSASTKGPSVFPLAPSSKSTSGGTAALGCLVKDYFPEPVTVSWNSGALTSGVHTFPAVLQSSGLSLSSVVTVPSSSLGTQTYICNVNHKPSNTKVDKKVEPKSCDKTHTCPPCPAPELLGGPSVFLFPPKPKDTLMISRTPEVTCVVVDVSHEDPEVKFNWYVDGVEVHNAKTKPREEQYNSTYRVVSVLTVLHQDWLNGKEYKCKVSNKALPAPIEKTISKAKGQPREPQVYTLPPSREEMTKNQVSLTCLVKGFYPSDIAVEWESNGQPENNYKTTPPVLDSDGSFLYSKLTVDKSRWQQGNVFSCSVMHEALHNHYTQKSLSLSPGK light: MDLQMTQSPSSLSASVGDRVTITCRASQSVYGNNWLSWYQQKPGKAPKLLIYGASKLASGVPSRFSGSGSGTQFTLTISSLQPEDFATYYCQGTYYSGDWYFAFGQGTKVEIKRTVAAPSVFIFPPSDEQLKSGTASVVCLLNNFYPREAKVQWKVDNALQSGNSQESVTEQDSKDSTYSLSSTLTLSKADYEKHKVYACEVTHQGLSSPVTKSFNRGEC				1285	82700	0.00166	54000	0.000422
2842-B01 HC1/LC1 (antibody, V domains shown) VH: MQVQVVESGGGLVKPGGSLRLSCAASGFSISSYDMSWIRQAPGKGLEWIGIIGSNGRTYYADSVKGRFTISRNTNENTVYLQMNSLRAEDTAVYYCARGLYDGTGNIWGQGTLVTVSS VL: MDLQMTQSPSSLSASVGDRVTITCRASQSVYGNNWLSWYQQKPGKAPKLLIYGASKLASGVPSRFSGSGSGTQFTLTISSLQPEDFATYYCQGTYYSGDWYFAFGQGTKVEIK	87.3	0.00352	0.000727					
2842-B01 HC1/LC2 (antibody, V domains shown) VH: MQVQVVESGGGLVKPGGSLRLSCAASGFSISSYDMSWIRQAPGKGLEWIGIIGSNGRTYYADSVKGRFTISRNTNENTVYLQMNSLRAEDTAVYYCARGLYDGTGNIWGQGTLVTVSS VL: MELVMTQSPPTLSLSPGERVTLSCRASQSVYGNNWLSWYQQKPGQAPRLLIYGASKLATSIPARFSGSGSGTQFTLTISSLQPEDFAVYYCQGTYYSGDWYFAFGQGTKVEIK	82.4	0.00142	0.000691					
